In patent US20240376221A1 (Genmab, published 2024):
Positions count from the first letter of the chain named. Names and notes keep the numbering of the source.

T1: human OX40 with mouse CRD3 (human with mouse CRD3, UniProt P43489 29-277)
T1 construct: on transfected ExpiCHO-S cells; also called Shuffle 3; OX40-CRD3mm
T1 chain: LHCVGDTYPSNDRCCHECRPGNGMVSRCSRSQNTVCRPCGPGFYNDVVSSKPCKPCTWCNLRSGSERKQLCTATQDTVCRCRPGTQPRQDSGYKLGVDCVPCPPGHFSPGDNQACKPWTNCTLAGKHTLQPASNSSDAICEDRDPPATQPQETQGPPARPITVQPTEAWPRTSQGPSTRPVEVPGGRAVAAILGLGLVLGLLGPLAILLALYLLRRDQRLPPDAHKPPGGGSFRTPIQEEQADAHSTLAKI

T2: cynomolgus monkey OX40, cell surface-expressed (cynomolgus monkey, UniProt P43489 29-277 (human entry))
T2 construct: full-length, on transfected HEK293F cells
T2 chain: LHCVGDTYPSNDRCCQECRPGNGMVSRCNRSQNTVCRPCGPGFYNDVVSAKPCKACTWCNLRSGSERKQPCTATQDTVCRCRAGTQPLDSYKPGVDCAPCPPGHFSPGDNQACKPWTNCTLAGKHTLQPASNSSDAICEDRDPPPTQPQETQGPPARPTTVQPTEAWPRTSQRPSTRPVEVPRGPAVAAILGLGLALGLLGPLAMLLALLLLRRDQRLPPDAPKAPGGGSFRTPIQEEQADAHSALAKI

T3: human OX40, cell surface-expressed (human, UniProt P43489 29-277)
T3 construct: also called CD134; TNFRSF4
T3 sequence: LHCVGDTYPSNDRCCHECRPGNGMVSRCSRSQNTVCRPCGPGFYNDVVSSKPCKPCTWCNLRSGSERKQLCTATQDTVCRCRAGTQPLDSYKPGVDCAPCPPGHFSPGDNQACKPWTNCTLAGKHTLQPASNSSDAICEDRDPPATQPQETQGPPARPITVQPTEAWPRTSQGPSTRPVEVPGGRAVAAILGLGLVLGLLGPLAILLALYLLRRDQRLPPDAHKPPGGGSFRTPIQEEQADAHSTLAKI

T4: human OX40 with mouse CRD2 (human with mouse CRD2, UniProt P43489 29-277)
T4 construct: on transfected ExpiCHO-S cells; also called Shuffle 2; OX40-CRD2mm
T4 chain: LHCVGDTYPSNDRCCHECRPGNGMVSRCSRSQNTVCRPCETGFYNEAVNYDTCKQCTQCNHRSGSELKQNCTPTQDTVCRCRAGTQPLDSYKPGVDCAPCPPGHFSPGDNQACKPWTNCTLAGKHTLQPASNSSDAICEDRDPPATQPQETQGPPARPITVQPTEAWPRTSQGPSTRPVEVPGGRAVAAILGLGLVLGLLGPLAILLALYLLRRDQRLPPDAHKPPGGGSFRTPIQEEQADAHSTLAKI

T5: human OX40 with mouse CRD4 (human with mouse CRD4, UniProt P43489 29-277)
T5 construct: on transfected ExpiCHO-S cells; also called Shuffle 4; OX40-CRD4mm
T5 chain: T3 sequence with D109N, A122S, H125Q, L127R, Q128H, N132D, S134L, I137V

T6: human OX40 with mouse CRD1 (human with mouse CRD1, UniProt P43489 29-277)
T6 construct: on transfected ExpiCHO-S cells; also called Shuffle 1; OX40-CRD1mm
T6 chain: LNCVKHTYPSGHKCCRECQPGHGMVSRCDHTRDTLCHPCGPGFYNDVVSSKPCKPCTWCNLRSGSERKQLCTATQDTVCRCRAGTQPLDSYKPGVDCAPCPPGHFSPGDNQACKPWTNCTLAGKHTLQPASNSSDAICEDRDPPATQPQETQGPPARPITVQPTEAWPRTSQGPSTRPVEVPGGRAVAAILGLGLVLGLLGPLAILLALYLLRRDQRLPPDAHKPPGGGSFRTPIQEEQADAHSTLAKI

B1: IgG1-CD134-012-RR-K409R (antibody)
heavy: QSLEESGGRLVTPGTPLTLICTVSGIDLSSGAMGWVRQAPGKGLEYIGYIYTGSGTTSYASWVNGRFTISMTSTTVDLKITSPTTEDTATYFCARDAASSYWGHFTLWGQGTLVTVSSASTKGPSVFPLAPSSKSTSGGTAALGCLVKDYFPEPVTVSWNSGALTSGVHTFPAVLQSSGLYSLSSVVTVPSSSLGTQTYICNVNHKPSNTKVDKRVEPKSCDKTHTCPPCPAPELLGGPSVFLFPPKPKDTLMISRTPEVTCVVVDVSHEDPEVKFNWYVDGVEVHNAKTKPREEQYNSTYRVVSVLTVLHQDWLNGKEYKCKVSNKALRAPIEKTISKAKGQPRRPQVYTLPPSREEMTKNQVSLTCLVKGFYPSDIAVEWESNGQPENNYKTTPPVLDSDGSFFLYSRLTVDKSRWQQGNVFSCSVMHEALHNHYTQKSLSLSPG
light: DIVMTQTPASVEAAVGGTVTIKCQASENIYSSLAWYQQKPGQPPKLLIYRTSTLASGVPSRFKGSGSGTQFTLTISDLESDDAATYYCQSYYHNSGGGYDYGFGGGTEVVAKRTVAAPSVFIFPPSDEQLKSGTASVVCLLNNFYPREAKVQWKVDNALQSGNSQESVTEQDSKDSTYSLSSTLTLSKADYEKHKVYACEVTHQGLSSPVTKSFNRGEC
notes: chimeric 012; also called IgG1-CD134-012-P329R-E345R-K409R
B2: IgG1-CD134-007-RR (antibody)
heavy: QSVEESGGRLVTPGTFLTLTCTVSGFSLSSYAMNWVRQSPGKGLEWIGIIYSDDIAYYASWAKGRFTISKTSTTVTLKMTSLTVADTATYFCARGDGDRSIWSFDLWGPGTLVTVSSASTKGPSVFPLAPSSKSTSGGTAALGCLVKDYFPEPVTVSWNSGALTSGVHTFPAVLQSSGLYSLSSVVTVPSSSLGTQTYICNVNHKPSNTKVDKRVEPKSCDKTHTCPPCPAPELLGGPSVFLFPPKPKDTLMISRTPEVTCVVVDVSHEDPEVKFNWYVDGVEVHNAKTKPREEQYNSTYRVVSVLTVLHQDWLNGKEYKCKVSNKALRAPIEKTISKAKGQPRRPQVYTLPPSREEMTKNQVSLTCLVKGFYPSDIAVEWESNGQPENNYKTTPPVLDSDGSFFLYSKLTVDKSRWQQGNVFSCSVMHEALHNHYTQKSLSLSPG
light: AQVLTQTPSPVSAAVGGTVTISCQSSESVWNNNWLAWYQQKPGQPPNLLIYEASTLASGVSSRFKGSGSGTQFTLTVSEVQSDDAATYYCQGGYYDSSPIWTFGGGTEVVVKRTVAAPSVFIFPPSDEQLKSGTASVVCLLNNFYPREAKVQWKVDNALQSGNSQESVTEQDSKDSTYSLSSTLTLSKADYEKHKVYACEVTHQGLSSPVTKSFNRGEC
notes: chimeric 007 with RR constant region; also called IgG1-CD134-007-P329R-E345R

Experiments:
[1] = biological target: T1, human OX40 with mouse CRD3; experiment: flow cytometry, ExpiCHO-S cells with human OX40 carrying mouse CRD3
Experimental: (§1) The four shuffle constructs, as well as wild-type human and mouse OX40 were transiently expressed on ExpiCHO-S cells using the ExpiFectamine™ CHO Transfection Kit (ThermoFisher, cat. no. A29131), according to the manufacturer's protocol. […] Next, cells were washed twice in FACS buffer 1, were resuspended in a 30 μL solution of viability marker ToPro-3 (Invitrogen, cat. no. T3605, diluted 1:10,000) in FACS buffer 1 supplemented with 2 mM EDTA, and were analyzed on an iQue Screener Plus (Intellicyt Corporation, USA). Data were analyzed using FlowJo software and visualized using GraphPad Prism.

[2] = biological target: T2, cynomolgus monkey OX40, cell …; experiment: flow cytometry, HEK293F cells with cynomolgus monkey OX40
Experimental: Transfected cells were seeded in 96-well plates (30,000 cells/well; ThermoFisher, cat. no. 163320) for sequential incubations, with washing steps in between using fluorescence-activated cell sorting (FACS) buffer 1 (phosphate buffered saline [PBS; Lonza, cat. no. BE17-517Q] supplemented with 0.1% bovine serum albumin [BSA; Roche, cat. no. 10735086001] and 0.02% sodium azide [NaN₃; Bio-World, cat. no. 41920044-3]) supplemented with 2 mM ethylenediaminetetraacetic acid (EDTA; Sigma-Aldrich, cat. no. 03690). […] Cells were then washed using EDTA-supplemented FACS buffer 1, resuspended in a 30 μL solution of viability marker ToPro-3 (Invitrogen, cat. no. T3605, diluted 1:10,000) in EDTA-supplemented FACS buffer 1, and subsequently analyzed on an iQue® 3 flow cytometer (Satorius). Data were analyzed using FlowJo software and were visualized using GraphPad Prism.

[3] = biological target: T3, human OX40, cell surface-expressed; experiment: flow cytometry, ExpiCHO-S cells with human OX40
Experimental: as §1

[4] = biological target: T4, human OX40 with mouse CRD2; experiment: flow cytometry, ExpiCHO-S cells with human OX40 carrying mouse CRD2
Experimental: as §1

[5] = biological target: T5, human OX40 with mouse CRD4; experiment: flow cytometry, ExpiCHO-S cells with human OX40 carrying mouse CRD4
Experimental: (§2) Data shown are the geometric mean of the fluorescence intensity (gMFI) from one representative experiment out of two experiments performed.
as §1

[6] = biological target: T6, human OX40 with mouse CRD1; experiment: flow cytometry, ExpiCHO-S cells with human OX40 carrying mouse CRD1
Experimental: as §2, §1

| Binder | EC50 (read off the curve) [1] [µg/mL] | EC50 (read off the curve) [2] [µg/mL] | EC50 (read off the curve) [3] [µg/mL] | EC50 (read off the curve) [4] [µg/mL] | EC50 (read off the curve) [5] [µg/mL] | EC50 (read off the curve) [6] [µg/mL] |
| --- | --- | --- | --- | --- | --- | --- |
| B1 | ~0.1 | ~0.05 | ~0.06 | ~0.1 | ~0.1 | – |
| B2 | ~0.02 | – | ~0.005 | – | ~0.009 | ~0.005 |
